Test results: IntAct's records for PubMed 24292623

B1: Zinc finger protein Aiolos (Homo sapiens), Q9UKT9 (parent)
chain: MEDIQTNAELKSTQEQSVPAESAAVLNDYSLTKSHEMENVDSGEGPANEDEDIGDDSMKVKDEYSERDENVLKSEPMGNAEEPEIPYSYSREYNEYENIKLERHVVSFDSSRPTSGKMNCDVCGLSCISFNVLMVHKRSHTGERPFQCNQCGASFTQKGNLLRHIKLHTGEKPFKCHLCNYACQRRDALTGHLRTHSVEKPYKCEFCGRSYKQRSSLEEHKERCRTFLQSTDPGDTASAEARHIKAEMGSERALVLDRLASNVAKRKSSMPQKFIGEKRHCFDVNYNSSYMYEKESELIQTRMMDQAINNAISYLGAEALRPLVQTPPAPTSEMVPVISSMYPIALTRAEMSNGAPQELEKKSIHLPEKSVPSERGLSPNNSGHDSTDTDSNHEERQNHIYQQNHMVLSRARNGMPLLKEVPRSYELLKPPPICPRDSVKVINKEGEVMDVYRCDHCRVLFLDYVMFTIHMGCHGFRDPFECNMCGYRSHDRYEFSSHIARGEHRALLK
B2: DNA-binding protein Ikaros (Homo sapiens), Q13422-1 (parent)
chain: MDADEGQDMSQVSGKESPPVSDTPDEGDEPMPIPEDLSTTSGGQQSSKSDRVVASNVKVETQSDEENGRACEMNGEECAEDLRMLDASGEKMNGSHRDQGSSALSGVGGIRLPNGKLKCDICGIICIGPNVLMVHKRSHTGERPFQCNQCGASFTQKGNLLRHIKLHSGEKPFKCHLCNYACRRRDALTGHLRTHSVGKPHKCGYCGRSYKQRSSLEEHKERCHNYLESMGLPGTLYPVIKEETNHSEMAEDLCKIGSERSLVLDRLASNVAKRKSSMPQKFLGDKGLSDTPYDSSASYEKENEMMKSHVMDQAINNAINYLGAESLRPLVQTPPGGSEVVPVISPMYQLHKPLAEGTPRSNHSAQDSAVENLLLLSKAKLVPSEREASPSNSCQDSTDTESNNEEQRSGLIYLTNHIAPHARNGLSLKEEHRAYDLLRAASENSQDALRVVSTSGEQMKVYKCEHCRVLFLDHVMYTIHMGCHGFRDPFECNMCGYHSQDRYEFSSHITRGEHRFHMS

Variants of: B1
Conditions: with crbn_human CRBN

Row | Variant | effect of a mutation on the interaction
1 | Q147H | decreasing interaction strength

Variants of: B2
Conditions: with crbn_human CRBN

Row | Variant | effect of a mutation on the interaction
2 | Q146H | decreasing interaction strength
